Data as given in paper PMC3461476, “Functional expression of a penicillin acylase from the extreme thermophile Thermus thermophilus HB27 in Escherichia coli” (Microbial Cell Factories, 2012).

What was measured:
Assay in all cases: initial rates of hydrolysis, fluorescamine detection of primary amine product
[1] = biological target: T1, TthPAC (Thermus thermophilus, UniProt Q72G76, DEL247-255); type: biochemical; details: 20 mM MES pH 5.5, 65 °C; kcat unit taken from kcat/Km in mM^-1.seg^-1
T1 construct: gene TT_C1972; One gene: precursor without its first 32 residues (membrane anchor), 2223 bp insert in pET28a, His6-tag (20 aa) at N-terminus of alpha subunit kept
Description: (§1) initial rates of hydrolysis, fluorescamine detection of primary amine product on TthPAC

[2] = substrate: CC/C=C/CC(=O)N[C@@H]1C(=O)N2[C@@H]1SC(C)(C)[C@@H]2C(=O)O; type: biochemical, Thermus thermophilus; details: 20 mM MES pH 5.5, 65 °C, kcat unit taken from kcat/Km in mM^-1.seg^-1
Description: as §1

[3] = substrate: CC1(C)S[C@@H]2[C@H](NC(=O)COc3ccccc3)C(=O)N2[C@H]1C(=O)O; type: biochemical, Thermus thermophilus; details: 20 mM MES pH 5.5, 65 °C, kcat unit taken from kcat/Km in mM^-1.seg^-1
Description: as §1

[4] = substrate: CCCCCC(=O)N[C@@H]1C(=O)N2[C@@H]1SC(C)(C)[C@@H]2C(=O)O; type: biochemical, Thermus thermophilus; details: 20 mM MES pH 5.5, 65 °C, kcat unit taken from kcat/Km in mM^-1.seg^-1
Description: as §1

[5] = substrate: CCCCCCCC(=O)N[C@@H]1C(=O)N2[C@@H]1SC(C)(C)[C@@H]2C(=O)O; type: biochemical, Thermus thermophilus; details: 20 mM MES pH 5.5, 65 °C, kcat unit taken from kcat/Km in mM^-1.seg^-1
Description: as §1

Molecule	K m (mM) [1]	Km [2] [mM]	kcat [2] [s⁻¹]	kcat/Km [2] [M⁻¹ s⁻¹]	Km [3] [mM]	kcat [3] [s⁻¹]	kcat/Km [3] [M⁻¹ s⁻¹]	Km [4] [mM]	kcat [4] [s⁻¹]	kcat/Km [4] [M⁻¹ s⁻¹]	Km [5] [mM]	kcat [5] [s⁻¹]	kcat/Km [5] [M⁻¹ s⁻¹]
CC1(C)S[C@@H]2[C@H](NC(=O)Cc3ccccc3)C(=O)N2[C@H]1C(=O)O [Penicillin G]	~ Approx. 2.90 mM	–	–	–	–	–	–	–	–	–	–	–	–
TthPAC (Thermus thermophilus HB27; DEL247-255) (protein, One gene: precursor without its first 32 residues (membrane anchor), 2223 bp insert in pET28a, His6-tag (20 aa) at N-terminus of alpha subunit kept) LYLRASLPQGEGRIALEGLSAPVEVVRDGKGVVRIRAATLKDLFFAQGFVHAQERLWQMEFQRRVGQGRLSEILGEATLPQDRFLRTWGFYRAARAAYGKLYPEEKEAVDAYAAGVNAFLASGAPLPPEFRLLGFRPEPWTGPDVLVWAKMMSYDLSGNWEEELKRHRLLARGVSPKRLLELKPPYPEDAPTVLRAEDLKLPLKREEAPSALLRSNNWVVAGSRTETGKPFLANDPHLALQAPSLWFLMALEAPGLRAIGATLPGLPGVVIGRNERIAWGVTNVGADVEDLYLLEEVEGRGYRYKGRVVPYGVREEVIRVKGGREEVLKVRETVYGPVITDALEDPPKTPMALRWVSLDEEDHILMAFLGVNRAGNWEEFKKALLPYSAPSQNFVYADVEGNIGYIAPGKFPVRKEGHTGMVPVPGNGEWDWLGYRRPEEWPQAFNPARGYLVTANHKVTPKGFPYALTYDWAEPYRAERIEELLLAKEKLSLEDMKAIQQDQKSLLYRDFRPVLELLTPLSEGARAWRDRLLAWDGTMAPGSEEALVFALWYTELTRLPQREVGEAYWDEPRYLLKALKEGDKNCDQPETEYRESCLDYAALALERALDRKEALGARAWGEVHRARFPHAVLTHTPLKRLSDREVAFGGDRYTVNVGPFDPETLAMGHGPSYRQIVDLSDMEGSLFVHPMGQSGHFLSRHYADLLPLWQRGDYLPMRFGAPLGRTLLLEPLPSP	–	0.94 ± 0.18	0.90 ± 0.03	960	0.74 ± 0.11	0.57 ± 0.01	770	0.98 ± 0.22	1.46 ± 0.06	1490	0.32 ± 0.05	5.16 ± 0.13	16100
